Target: crp_human CRP (UniProt P02741)
Sequence (P02741 whole entry): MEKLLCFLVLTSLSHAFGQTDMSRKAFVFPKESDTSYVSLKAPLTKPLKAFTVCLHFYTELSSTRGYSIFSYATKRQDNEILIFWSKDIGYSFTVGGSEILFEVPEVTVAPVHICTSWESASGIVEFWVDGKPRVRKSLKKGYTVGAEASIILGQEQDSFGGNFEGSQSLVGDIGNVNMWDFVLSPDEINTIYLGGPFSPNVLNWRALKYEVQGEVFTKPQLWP

| effect of a mutation on the interaction | Substance |
| --- | --- |
| with no effect | Collectin-12 (Homo sapiens), Q5KU26 K466A;K469A;K472A |
| decreasing interaction strength | Collectin-12 (Homo sapiens), Q5KU26 R448A;R451A;R454A |
| decreasing interaction strength | Collectin-12 (Homo sapiens), Q5KU26 R448A;R451A;R454A;K466A;K469A;K472A;R496A;K499A;K502A |
| disrupting interaction strength | Collectin-12 (Homo sapiens), Q5KU26 R496A;K499A;K502A |
